Reference: patent US20120201746A1 (AbbVie / Abbott, published 2012)

B1: Anti-CD28 Ig (parental antibody 9.3) (antibody, human IgG1, kappa, V domains shown)
VH: QVKLQQSGAELVKPGASVRLSCKASGYTFTEYIIHWIKLRSGQGLEWIGWFYPGSNDIQYNAKFKGKATLTADKSSSTVYMELTGLTSEDSAVYFCARRDDFSGYDALPYWGQGTMVTVSS
VL: DIQMTQSPASLSVSVGETVTITCRTNENIYSNLAWYQQKQGKSPQLLIYAATHLVEGVPSRFSGSGSGTQYSLKITSLQSEDFGNYYCQHFWGTPCTFGGGTKLEIKR
notes: 9.3 variable domains on human Cg1 (z, non-a) and human Ck; also called anti-CD28 antibody 9.3
B2: ½ hTNFaR Fc (Fc fusion)
chain: LPAQVAFTPYAPEPGSTCRLREYYDQTAQMCCSKCSPGQHAKVFCTKTSDTVCDSCEDSTYTQLWNWVPECLSCGSRCSSDQVETQACTREQNRICTCRPGWYCALSKQEGCRLCAPLRKCRPGFGVARPGTETSDVVCKPCAPGTFSNTTSSTDICRPHQICNVVAIPGNASMDAVCTSTSPTRSMAPGAVHLPQPVSTRSQHTQPTPEPSTAPSTSFLLPMGPSPPAEGSTGDEPKSSDKTHTSPPSPAPELLGGPSVFLFPPKPKDTLMISRTPEVTCVVVDVSHEDPEVKFNWYVDGVEVHNAKTKPREEQYNSTYRVVSVLTVLHQDWLNGKEYKCKVSNKALPAPIEKTISKAKGQPREPQVYTLPPSREEMTKNQVSLTCLVKGFYPSDIAVEWESNGQPENNYKTTPPVLDSDGSFRLYSKLTVDKSRWQQGNVFSCSVMHEALHNHYTQKSLSLSPGK
notes: Half receptor-Fc with Fc-Mut18; 55 % half-Ig by SEC; also called half hTNFaR Fc

How the values were obtained:
[1] = target: T1, cell surface CD28 on Jurkat E6-1 cells (UniProt P10747 19-220, limits assumed); assay: flow cytometry on Jurkat E6-1 cells
T1 construct: whole, on cells; Jurkat is a human cell line
Experimental: Jurkat E6-1 cells (ATCC, Manassas, Va.) were harvested and washed with PBS, and resuspended in ice cold PBS with 10% FCS (GIBCO®) at 2×10⁷ cells/ml. Anti-CD28 antibodies or half-Ig binding protein (1 μl) was added to tubes containing 100 μl of cell suspension, then incubated on ice for 30 min. The cells were washed 3 times and resuspended in ice cold PBS, then stained with PE labeled anti-human IgG1 antibody (Southern Biotech, Birmingham, Ala.) according to manufacturer's instructions. After secondary staining, the cells were washed and resuspended in ice cold PBS with 10% FCS. FACS analysis was performed on a FACScan (Becton Dickinson, Franklin Lakes, N.J.).

[2] = target: Recombinant Human TNF-α/TNFSF1A (human, UniProt P01375 77-233); assay: SPR (BIAcore)
Recombinant Human TNF-α/TNFSF1A, sequence (P01375 77-233 limits assumed): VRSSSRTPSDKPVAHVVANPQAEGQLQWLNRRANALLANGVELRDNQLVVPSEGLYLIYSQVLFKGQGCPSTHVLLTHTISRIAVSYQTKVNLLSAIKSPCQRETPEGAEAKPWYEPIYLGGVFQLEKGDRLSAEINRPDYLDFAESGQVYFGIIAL
Experimental: The BIAcore® assay (BIAcore®, Inc, Piscataway, N.J.) determines the affinity of antibodies with kinetic measurements of on-rate and off-rate constants. Binding of antibodies to a target antigen (for example, a purified recombinant target antigen) is determined by surface plasmon resonance-based measurements with a BIAcore® 1000 or 3000 instrument (BIAcore® AB, Uppsala, Sweden) using running HBS-EP (10 mM HEPES [pH 7.4], 150 mM NaCl, 3 mM EDTA, and 0.005% surfactant P20) at 25° C. […] Unreacted moieties on the biosensor surface are blocked with ethanolamine. Modified carboxymethyl dextran surface in flowcell 2 and 4 is used as a reaction surface. Unmodified carboxymethyl dextran without goat anti-mouse IgG in flow cell 1 and 3 is used as the reference surface. For kinetic analysis, rate equations derived from the 1:1 Langmuir binding model are fitted simultaneously to association and dissociation phases of all eight injections (using global fit analysis) with the use of Biaevaluation 4.0.1 software. Purified antibodies are diluted in HEPES-buffered saline for capture across goat anti-mouse IgG specific reaction surfaces. […] The association and dissociation rate constants, kₒₙ (M⁻¹s⁻¹) and koff (s⁻¹), are determined under a continuous flow rate of 25 μl/minute. Rate constants are derived by making kinetic binding measurements at different antigen concentrations ranging from 10-200 nM. The equilibrium dissociation constant (M) of the reaction between antibodies and the target antigen is then calculated from the kinetic rate constants by the following formula: KD=koff/kₒₙ. Binding is recorded as a function of time and kinetic rate constants are calculated.

binding result [1]	kon [2] [M⁻¹ s⁻¹]	Binder
binds		B1
	1.9e+06	B2
